From US20240059759A1

Columns and labels:
[1] = target: SARS-CoV-2 RBD (SinoBiological, Cat. No. 40592-V02H) (SARS-CoV-2) (UniProt P0DTC2)
[2] = target: SARS-CoV-2 RBD (SinoBiological, Cat. No. 40592-V02H) (SARS-CoV-2) (UniProt P0DTC2); test: ELISA on RBD

VHH-72 D61S gave a fold enhanced binding [1] of 3 fold and an EC50 [2] of 0.17 µg/mL.
